Here are results for 3 substances from paper PMC9670971.

This assay has as its target Recombinant Mip (25 kDa) (L. pneumophila) (UniProt Q5ZXE0). In words: co-IP.

“And” between values parts separate entries of the source, which are not always exact repeats. Identical values can stand only once.

Consider “Flagellin FlaA (LPC_0756), native (natural protein)”, for which the antibody signal from Western blot (ImageJ) (relative units) was 4380 and 4310; the band intensity in Coomassie stained gel (ImageJ) (relative units) is 5680 and 5740.

For the substance Lpc2061-6xHis-Tag (natural protein), the antibody signal from Western blot (ImageJ) (relative units) is 4690 and 4520; the band intensity at 15 kDa in Coomassie stained gel (ImageJ) (relative units) was 4600 and 7390; the band intensity in Coomassie stained gel (ImageJ) (relative units) was 1900 and 795.

For SspB-Strep-TagII (natural protein), the antibody signal from Western blot (ImageJ) (relative units) was 5030 and 5180; the band intensity in Coomassie stained gel (ImageJ) (relative units) was 4300 and 4240.
